Common to all, as to test: ITC; ligand (peptide or CAR-1 fragment, 0.5 mM) injected into CGH-1_(248-420) or mutant (0.05 mM) in the cell; 20 °C; Buffer B (20 mM Tris-HCl pH 7.5, 150 mM NaCl); one-binding-site model
What all share (settings): both partners purified
On the technique in general: ITC needs no label: the signal is the heat of the interaction.

For one experiment, the target named is T1, CGH-1_(248–420) R393A (C. elegans, UniProt Q95YF3 248-420, R393A).
T1 construct: Mutant of m1 made with the MutanBEST kit; source: E. coli Gold (DE3), purified (Ni-chelating resin, SEC Superdex 75)
T1 sequence (looked up): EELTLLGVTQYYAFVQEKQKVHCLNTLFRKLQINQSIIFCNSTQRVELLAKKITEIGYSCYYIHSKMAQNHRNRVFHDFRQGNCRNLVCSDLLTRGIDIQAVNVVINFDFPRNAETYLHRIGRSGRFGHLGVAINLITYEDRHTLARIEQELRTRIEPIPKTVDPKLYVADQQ

The next experiment has as its target T2, CGH-1_(248–420) H269A (C. elegans, UniProt Q95YF3 248-420, H269A).
T2 construct: Mutant of m1 made with the MutanBEST kit; source: E. coli Gold (DE3), purified (Ni-chelating resin, SEC Superdex 75)
T2 sequence (looked up): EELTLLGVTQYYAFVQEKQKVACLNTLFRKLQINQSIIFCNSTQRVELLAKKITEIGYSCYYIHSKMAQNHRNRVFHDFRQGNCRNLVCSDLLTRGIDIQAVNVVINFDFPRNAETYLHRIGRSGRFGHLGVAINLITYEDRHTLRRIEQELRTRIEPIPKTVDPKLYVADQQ

The next experiment concerns the target T3, CGH-1_(248–420) K277A (C. elegans, UniProt Q95YF3 248-420, K277A).
T3 construct: Mutant of m1 made with the MutanBEST kit; source: E. coli Gold (DE3), purified (Ni-chelating resin, SEC Superdex 75)
T3 sequence (looked up): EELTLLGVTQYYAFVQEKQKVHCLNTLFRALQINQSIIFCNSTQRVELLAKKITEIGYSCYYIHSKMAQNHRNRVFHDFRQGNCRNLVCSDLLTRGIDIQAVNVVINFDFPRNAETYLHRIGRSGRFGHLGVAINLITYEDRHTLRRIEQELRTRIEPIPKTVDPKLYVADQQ

A further experiment deals with T4, CGH-1_(248–420) Q266A (C. elegans, UniProt Q95YF3 248-420, Q266A).
T4 construct: Mutant of m1 made with the MutanBEST kit; source: E. coli Gold (DE3), purified (Ni-chelating resin, SEC Superdex 75)
T4 sequence (looked up): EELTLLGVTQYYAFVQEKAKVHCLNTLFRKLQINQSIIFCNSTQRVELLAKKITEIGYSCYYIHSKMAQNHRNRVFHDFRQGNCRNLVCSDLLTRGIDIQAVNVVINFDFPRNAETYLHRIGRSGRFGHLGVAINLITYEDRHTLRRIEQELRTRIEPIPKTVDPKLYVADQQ

The Kd is the free concentration of one partner at which half of the binding sites on the other are occupied at equilibrium, for simple one-to-one binding. Read a high Kd as weaker binding. Usually stoichiometry N stands for a count of units in the complex or per binding partner.

B1: PATR-1 peptide (CePATR-1_(30–67)) (peptide)
peptide: SDEDHNIFDDEFDAANDETFGGGLDNIGENAELENYAT
notes: PATR-1 (Pat1 ortholog), C. elegans, residues 30-67; Printed with free NH2 and COOH ends; also called PATR1_30-67^WT; CePATR-1 peptide; source: synthetic peptide (GL Biochem, Shanghai)
For B1, the Kd with CGH-1_(248–420) R393A was 4.22 ± 0.62 µM; in the experiment with CGH-1_(248–420) H269A, 2.67 ± 0.44 µM; with CGH-1_(248–420) K277A, 4.43 ± 0.42 µM; in the experiment with CGH-1_(248–420) Q266A it was 2.97 ± 0.29 µM. In addition, the dH was -16.6 ± 0.69 kcal/mol with CGH-1_(248–420) R393A, -15.4 ± 0.67 kcal/mol with CGH-1_(248–420) H269A, -17.2 ± 0.57 kcal/mol with CGH-1_(248–420) K277A and -16.6 ± 0.41 kcal/mol in the experiment with CGH-1_(248–420) Q266A. Further, the “stoichiometry N” value in the experiment with CGH-1_(248–420) R393A amounted to 0.8; with CGH-1_(248–420) H269A, 0.94; in the experiment with CGH-1_(248–420) K277A, 1.07; with CGH-1_(248–420) Q266A, 0.86.

The record behind these values is paper PMC8514580, “Insight into the interaction between the RNA helicase CGH-1 and EDC-3 and its implications” (Scientific Reports, 2021).
